# Assay results published in the supplement of paper PMC9170038.
# Tested on: MS2 coat protein
# Test: apparent KD of MS2 coat protein; designed switch direction (-1 OFF switch, 1 ON switch): -1; higher = weaker reporter binding
# Method in brief: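 Three titration conditions were used: no input, 200 uM small-molecule ligand, and an oligonucleotide input. In each, SNAP-549-labelled MS2 coat protein was raised from 0.7 or 1.5 nM, doubling, to 3 µM over designed RNA switches transcribed on Illumina chips by stalled E. coli RNA polymerase. Curve fits of normalised cluster fluorescence gave values whose per-design median over clusters is the apparent KD.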
# [1] = Eterna round: R95, input ligand: FMN 200 uM
# [2] = Eterna round: R95, input ligand: microRNA oligo, concentration not stated
# [3] = Eterna round: R95, input ligand: none
# [4] = input ligand: microRNA oligo, concentration not stated
Sequence,apparent KD of MS2 coat protein [1] [nM],apparent KD of MS2 coat protein [2] [nM],apparent KD of MS2 coat protein [3] [nM],apparent KD of MS2 coat protein (input ligand: FMN 200 uM) [nM],apparent KD of MS2 coat protein (input ligand: none) [nM],apparent KD of MS2 coat protein [4] [nM]
"AAGUACCGUCACGAAAGUGAUGGUACAACAAGCAUGUAAACAUGAGGAUCACCCAUGUCCUCAAAUGCUCGUCUUAU [Sensor 3 - 62] (puzzle: Sensor v3, turn-off variant 2)",732,2020,776,–,–,–
"AAGUACCGUCACGAAAGUGAUGGUACAGCAAGCAAAUGUACAUGAGGAUCACCCAUGUCCUCAAUUGCUCGUCUUAU [Sensor 3 - 58] (puzzle: Sensor v3, turn-off variant 2)",81.7,181,87.4,–,–,–
"AAGUACCGUCACGAUAGUGAUGGUACAACAAGCAGUGAAACAUGAGGAUCACCCAUGUCCUCAGUUGCUCGUCUUAU [Sensor 3 - 79] (puzzle: Sensor v3, turn-off variant 2)",196,492,195,–,–,–
"AAGUACCGUCACGAUAGUGAUGGUACAACAAGCAUGUAAACAUGAGGAUCACCCAUGUCCUCGAUUGCUCGUCUUAU [Sensor 3 - 67] (puzzle: Sensor v3, turn-off variant 2)",527,601,537,–,–,–
"AAGUACCGUCACGAUAGUGAUGGUACAACAAGUAAAUGUACAUGAGGAUCACCCAUGUCCUCUUUUGCUCGUCUUAU [Sensor 3 - 91] (puzzle: Sensor v3, turn-off variant 2)",144,33,166,–,–,–
"AAGUACCGUCACGAUAGUGAUGGUACAACAAGUAAGUGAACAUGAGGAUCACCCAUGUCCUCUUUUGCUCGUCUUAU [Sensor 3 - 90] (puzzle: Sensor v3, turn-off variant 2)",309,18.4,334,–,–,–
"AAGUACCGUCACGAUAGUGAUGGUACAACAGGCAAAUGUACAUGAGGAUCACCCAUGUCCUCUUUUGCUCGUCUUAU [Sensor 3 - 99] (puzzle: Sensor v3, turn-off variant 2)",48.9,31,54.7,–,–,–
"AAGUACCGUCACGAUAGUGAUGGUACAACAGGUAGUGAAACAUGAGGAUCACCCAUGUCCUCAAUUGCUCGUCUUAU [Sensor 3 - 84] (puzzle: Sensor v3, turn-off variant 2)",773,179,716,–,–,–
"AAGUACCGUCACGAUAGUGAUGGUACAACAUGUAGUGAAACAUGAGGAUCACCCAUGUCCUCAAUUGCUCGUCUUAU [Sensor 3 - 83] (puzzle: Sensor v3, turn-off variant 2)",1400,460,1260,–,–,–
"AAGUAGUGUGUGAGGAUAUUGGUGGAAUGACACAUUAAGAAGGCACAUGAGGAUCACCCAUGUGGGUAAACACG [Brourd's EX4 #22] (Eterna round: R97, puzzle: Brourd's mod of Exclusion 4)",–,–,–,90,33.1,–
"AAGUAGUGUGUGAGGAUAUUGGUGGAAUGACACAUUAAGAAGGCACAUGAGGAUCACCCAUGUGGGUAGACACG [Brourd's EX4 #21] (Eterna round: R97, puzzle: Brourd's mod of Exclusion 4)",–,–,–,335,27.8,–
AAGUAUAGAGGAUAUAGUAAGUACUACAUGAGGAUCACCCAUGUUCUUCAUUACGUAUUUCUAGAAGGCUGAUAAA [EX-5 Malc#25] (puzzle: Exclusion 5),–,369,–,–,–,–
AAGUAUAGAGGAUAUAGUAGUUACAACAUGAGGAUCACCCAUGUUCUUCAUAGCGUAGAUCUAGAAGGCUGAUAAA [EX-5 Malc#30] (puzzle: Exclusion 5),265,110,119,–,–,–
AAGUAUAGAGGAUAUAGUGAGUACUACAUGAGGAUCACCCAUGUUCUUCAAAACGUAUUUCUAGAAGGCUGAUAAA [EX-5 Malc#21] (puzzle: Exclusion 5),110,47.8,59.1,–,–,–
AAGUAUAGAGGAUAUAGUGAGUACUACAUGAGGAUCACCCAUGUUCUUCAAAGCGUACUUCUAGAAGGCUGAUAAA [EX-5 Malc#16] (puzzle: Exclusion 5),381,251,208,–,–,–
AAGUAUAGAGGAUAUAGUGAGUACUACAUGAGGAUCACCCAUGUUCUUCACAGCGUAUUUCUAGAAGGCUGUUAAA [EX-5 Malc#19] (puzzle: Exclusion 5),29.6,26.5,26.4,–,–,–
"AAGUCAUUAGGAUAUGAAUAGGGAGACAUGAGGAUCACCCAUGUUGAUAGAACGACAUGUUCAGAAGGAGUCGCUG [Eternabot (L1) Solution 45] (Eterna round: R97, puzzle: Exclusion 5)",–,–,–,33.7,33,–
"AAGUCGAGCGUGAGGAUAUCGUUCGAACGACCGAACGAGAAGGCACAUGAGGAUCACCCAUGUGAUUCAGCUCA [Brourd's EX4 #47] (Eterna round: R97, puzzle: Brourd's mod of Exclusion 4)",–,–,–,93.6,19.7,–

Sequence,apparent KD of MS2 coat protein [1] [nM],apparent KD of MS2 coat protein [2] [nM],apparent KD of MS2 coat protein [3] [nM],apparent KD of MS2 coat protein (input ligand: FMN 200 uM) [nM],apparent KD of MS2 coat protein (input ligand: none) [nM],apparent KD of MS2 coat protein [4] [nM]
AAGUGUGCCUAGGAUAUGUUCGGCCAAGGUCAUACAGAAGGAGGCACAUGAGGAUCACCCAUGUAGUGUCCAAC [Orririvebe] (puzzle: Exclusion 6),–,88.1,–,–,–,–
AAGUUGCGAGGAUAUCGUAAGAUGGACAUGAGGAUCACCCAUGUGGUGCUUUUUUAUUGGCGAGAAGGCGCAUAAA [Zaiseren] (puzzle: Exclusion 5),134,166,164,–,–,–
AAUAAAACAUAGGAUAUCGAAUUUAUCAUUUAACGAGAAGGAUGAACAUGAGGAUCACCCAUGUGGUAUCAUGG [Mat - Exclusion 6 - JL Mod - D7] (puzzle: Exclusion 6),168,244,216,–,–,–
AAUAAACAUGAGGAUCACCCAUGUGAGGAUAUCGAAAUAAAUAAUAAAAUAAAUAAAACGAGAAGGCACAAUAA [JMF most obvious solution 3] (puzzle: Exclusion 1),40.4,46.2,47.5,–,–,–
AAUAAACAUGAGGAUCACCCAUGUGAGGAUAUGCAAAUAAAUAAUAAAAUAAAUAAAAGCAGAAGGCACAAUAA [JMF most obvious solution 1] (puzzle: Exclusion 1),31.5,35,30.9,–,–,–
AAUAAACGAGGAUAUACUAAAAUAUGAAUAAAAUAAAUAAAACAUGAGGAUCACCCAUGUAGAAGGCGUAAUAA [JMF's Not so obvious solution 4] (puzzle: Exclusion 2),21.3,23.4,21.4,–,–,–
AAUAAAGUAGGAUAUCGGCCAGCGAACAUGAGGAUCACCCAUGUGAUGCCGUGCCGACGCCGAGAAGGGCUUAAAA [Usceisma] (puzzle: Exclusion 5),13.5,12,12.1,–,–,–
"AAUAAAUAAGCAGGAUCCUACAUGAGGAUCACCCAUGUGCUCGUCUUAUAAAGUACUAUCACGAAAGUGAUAGUACA [Mat - Sensor v3 - turn-off var 1 - Eli Mod - D75] (puzzle: Sensor v3, turn-off variant 1)",115,103,145,–,–,–
"AAUAACAAGCAAGAUCCUAACAUGAGGAUCACCCAUGUGCUCGUCUUGUAAAGUACUAUCACGAAAGUGAUAGUACA [Sensor 3, v1 - 48] (Eterna round: R96, puzzle: Sensor v3, turn-off variant 1)",–,–,–,22.3,25.5,437
"AAUAACAAGCAAGAUCCUAACAUGAGGAUCACCCAUGUGCUCGUCUUGUAAAGUACUAUCACGAAAGUGAUAGUACA [Sensor 3, v1 - 48] (puzzle: Sensor v3, turn-off variant 1)",20,723,22.1,–,–,–
"AAUAACAAGUGAGAUCCUAACAUGAGGAUCACCCAUGUGCUCGUCUUAUAAAGUACUAUCACGAAAGUGAUAGUACA [Sensor 3, v1 - 54] (puzzle: Sensor v3, turn-off variant 1)",117,7.29,70.6,–,–,–
"AAUAACAGAGGAUAUACGAAAAUAAGCGGAAACGCAAAGGGACAUGAGGAUCACCCAUGUAGAAGGCUGGAUAA [Tetraloop... 61% 2] (Eterna round: R96, puzzle: Exclusion 2)",–,–,–,204,34.2,19.6
AAUAACAGAGGAUAUACUAUUUUAUGUGUUUAUUGUUUUGAACAUGAGGAUCACCCAUGUAGAAGGCUGAAUAA [JMF 24] (puzzle: Exclusion 2),–,22.3,–,–,–,–
AAUAACAGAGGAUAUACUAUUUUAUGUGUUUAUUGUUUUGAACAUGAGGAUCACCCAUGUAGAAGGCUGAUUGA [JMF 78] (puzzle: Exclusion 2),–,40.7,–,–,–,–
AAUAACAGAGGAUAUACUGUUUUAUGUAUUUAUUAUUUUAAACAUGAGGAUCACCCAUGUAGAAGGCUGAUUAA [JMF 43] (puzzle: Exclusion 2),–,27.4,–,–,–,–
AAUAACAGAGGAUAUACUGUUUUAUGUGUUUGUUAUUUUAAACAUGAGGAUCACCCAUGUAGAAGGCUGAAUGA [JMF 57] (puzzle: Exclusion 2),–,22,–,–,–,–
AAUAACAGAGGAUAUACUGUUUUAUGUGUUUGUUGUUUUAAACAUGAGGAUCACCCAUGUAGAAGGCUGAGUAA [JMF 34] (puzzle: Exclusion 2),–,21,–,–,–,–
